# Test results: IntAct's records for PubMed 25350732
# B1: Probable peptidoglycan glycosyltransferase FtsW (Caulobacter crescentus), B8H092 (parent)
# chain: MASNATHAFARTDRTALGLWWWTTDRWLLGATALLVTLGMLLSFASSPAAAQRIGIDDQFHFALRMCFFATASSVLMLITSMLSPRDIRRAAFFIYLGAIAVMIALPFIGHNAKGATRWLQFAGFTLQPSEFMKPALIVLVSWMFAEGQKGEGVPGVSIAFLLYFIAVALLLIQPDVGQTVLITIAFGAAFWMAGVPISWIMGLGGVALAGLGSTYFLFDHVHARVQKFLSPDQADTHQITRAAEAIRAGGLFGRGPGEGVMKRHVPDLHTDFIYSVAAEEYGLIFSWSLIGLFAFVVVRGLYKAMKLNDPFEQVAAAGLFVLVGQQALINIAVNLNMIPTKGMTLPFISYGGSSMLAMGLTLGMALALLRKRPGAYGASGEFGFGRADA
# partner: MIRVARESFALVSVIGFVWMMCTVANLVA
# Variants of: B1
# Settings: with sida_cauvn sidA
row,Variant,effect of a mutation on the interaction
1,MASNATHAFARTDRTALGLWWWTTDRWLLGKTALLVTLGMLLSFASSPAAAQRIGIDDQFHFALRMCFFATASSVLMLITSMLSPRDIRRAAFFIYLGAIAVMIALPFIGHNAKGATRWLQFAGFTLQPSEFMKPALIVLVSWMFAEGQKGEGVPGVSIAFLLYFIAVALLLIQPDVGQTVLITIAFGAAFWMAGVPISWIMGLGGVALAGLGSTYFLFDHVHARVQKFLSPDQADTHQITRAAEAIRAGGLFGRGPGEGVMKRHVPDLHTDFIYSVAAEEYGLIFSWSLIGLFAFVVVRGLYKAMKLNDPFEQVAAAGLFVLVGQQALINIAVNLNMIPTKGMTLPFISYGGSSMLAMGLTLGMALALLRKRPGAYGASGEFGFGRADA [A31K],disrupting interaction strength
